# B1: human T-plastin, full length, wild type [human] / F-actin (filaments of α-actin) [not stated] (parent complex)
# chain 1: MDEMATTQISKDELDELKEAFAKVDLNSNGFICDYELHELFKEANMPLPGYKVREIIQKLMLDGDRNKDGKISFDEFVYIFQEVKSSDIAKTFRKAINRKEGICALGGTSELSSEGTQHSYSEEEKYAFVNWINKALENDPDCRHVIPMNPNTDDLFKAVGDGIVLCKMINLSVPDTIDERAINKKKLTPFIIQENLNLALNSASAIGCHVVNIGAEDLRAGKPHLVLGLLWQIIKIGLFADIELSRNEALAALLRDGETLEELMKLSPEELLLRWANFHLENSGWQKINNFSADIKDSKAYFHLLNQIAPKGQKEGEPRIDINMSGFNETDDLKRAESMLQQADKLGCRQFVTPADVVSGNPKLNLAFVANLFNKYPALTKPENQDIDWTLLEGETREERTFRNWMNSLGVNPHVNHLYADLQDALVILQLYERIKVPVDWSKVNKPPYPKLGANMKKLENCNYAVELGKHPAKFSLVGIGGQDLNDGNQTLTLALVWQLMRRYTLNVLEDLGDGQKANDDIIVNWVNRTLSEAGKSTSIQSFKDKTISSSLAVVDLIDAIQPGCINYDLVKSGNLTEDDKHNNAKYAVSMARRIGARVYALPEDLVEVKPKMVMTVFACLMGRGMKRV
# chain 2: not shown
# Variants of: B1
# Assay: sequential low-speed/high-speed F-actin cosedimentation assay; 5 μM actin, 2 μM plastin; read off a plot
row,Variant,response
1,chain 1 W390A,~0.37 proportion of T-plastin in low-speed pellet
2,chain 1 R594A,~0.77 proportion of T-plastin in low-speed pellet
